The target of this experiment is T1, N-SH2 domain of SHP2 (residues 2–111) (human, UniProt Q06124 2-111).
T1 construct: SHP2 (PTPN11), human, N-terminal SH2 domain, residues 2-111; also called wild-type N-SH2; source: E. coli (DE3) Rosetta2, purified (Ni-NTA)
T1 sequence (looked up): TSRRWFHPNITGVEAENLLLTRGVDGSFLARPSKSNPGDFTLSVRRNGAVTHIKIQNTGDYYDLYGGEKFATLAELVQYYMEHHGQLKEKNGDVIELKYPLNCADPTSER
As to the kind of experiment: fluorescence polarisation; fluorescence anisotropy, displacement: 1.0 nM CF-P9 with 40 nM N-SH2 titrated with unlabelled peptide; fluorescence buffer. To be noted: both partners purified.

[ ]: non-standard residue; d: D form. pY = N[C@@H](Cc1ccc(OP(=O)(O)O)cc1)C(=O)O

B1: P8, unlabeled IRS-1 pY1172 peptide, residues −2 to +5 (peptide)
peptide: Ac-LN[pY]IDLDL-NH2
SMILES: CC[C@H](C)[C@H](NC(=O)[C@H](Cc1ccc(OP(=O)(O)O)cc1)NC(=O)[C@H](CC(N)=O)NC(=O)[C@H](CC(C)C)NC(C)=O)C(=O)N[C@@H](CC(=O)O)C(=O)N[C@@H](CC(C)C)C(=O)N[C@@H](CC(=O)O)C(=O)N[C@@H](CC(C)C)C(N)=O
notes: IRS-1, residues −2 to +5 around pY1172 (rat numbering; P9 without residue −3); source: synthetic peptide
With B1, the binding result is recorded as “binds”.
